Assay results taken from US12710427B2, “Anti-human neurotensin receptor 1 antibody and use thereof” (National Health Research Institutes, priority 2020, dated 2026).

Assays:
NTSR1 on A549 cells = target: T1, NTSR1 on A549 cells (Homo sapiens, UniProt P30989); assay: Flow cytometry (FACS) binding of anti-NTSR1 antibodies on A549 cells; details: for FACS binding (%, 1 μg/ml) / FACS binding (%, 10 μg/ml): A549 cells; for FACS binding (%, 1 μg/ml): antibody 1 μg/ml; for FACS binding (%, 10 μg/ml): antibody 10 μg/ml; for EC50: relative mean fluorescence intensity (MFI) on A549 cells; for binding affinity to cell surface NTSR1 compared with h7C3-1: FACS, h7C3-1 variants
T1 construct: endogenous in cells; host or cells: A549 (NSCLC)
Description: A total of 1×10^6 cells were reacted with an anti-NTSR1 antibody in 100 μL of FACS buffer (PBS containing 0.5% BSA) for 60 minutes at 4° C. and washed two times to remove excess antibody. Secondary FITC (BD Pharmingen™) conjugated mouse anti-human IgG antibodies were incubated for an additional 60 minutes on ice. Cells were washed again and followed by an additional incubation with 1 ml PBS containing 0.5 mg/mL propidium iodide at 4° C. for 10 minutes. Data were collected on 10,000 living cells by FACS (Bio-Red S3e cell sorter). Fluorescence intensity from channel FL-1 was calculated with Flow Jo flow […] cytometry analysis software.

[1] = tested on: cyclic ECL2 peptide of NTSR1; assay: NTSR1-binding affinity ELISA (alanine scanning variants); set-up: species or system human; details: for effect on h7C3 affinity (in words): compared with parental h7C3
Description: The NTSR1-binding capacity of different antibodies were measured by ELISA. Briefly, NeutrAvidin 96-well plates (Pierce Cat:15128) were coated with cyL2-Biotin peptides at a final concentration of 5 μg/ml at […]. On the following day, the coating solution was removed, and the plates were blocked with 5% (v/v) non-fat dry milk in phosphate buffer saline (PBS) for 1 hour. After washing with PBST, gradient concentrations of anti-NTSR1 antibodies were added in triplicate. After 1 hour of incubation, the plate was washed three times with PBST, followed by the addition of horseradish peroxidase (HRP)-conjugated goat anti-human IgG Fc antibody (100 μL) into each well for an additional hour at RT. Finally, 100 μL of tetramethylbenzidine (TMB) substrate was added into each well to produce color for visualization. After 2 minutes of incubation, 100 μL of 2M H2SO4 was used to stop the reaction. The absorbance of each well was read at 450 nm with a plate reader. Flow cytometry

[2] = alanine scanning of CDR L3 of h7C3-1

Sequence of cyclic ECL2 peptide of NTSR1 (P30989 206-234 limits assumed): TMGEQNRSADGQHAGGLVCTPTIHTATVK
T1 sequence (P30989 whole entry): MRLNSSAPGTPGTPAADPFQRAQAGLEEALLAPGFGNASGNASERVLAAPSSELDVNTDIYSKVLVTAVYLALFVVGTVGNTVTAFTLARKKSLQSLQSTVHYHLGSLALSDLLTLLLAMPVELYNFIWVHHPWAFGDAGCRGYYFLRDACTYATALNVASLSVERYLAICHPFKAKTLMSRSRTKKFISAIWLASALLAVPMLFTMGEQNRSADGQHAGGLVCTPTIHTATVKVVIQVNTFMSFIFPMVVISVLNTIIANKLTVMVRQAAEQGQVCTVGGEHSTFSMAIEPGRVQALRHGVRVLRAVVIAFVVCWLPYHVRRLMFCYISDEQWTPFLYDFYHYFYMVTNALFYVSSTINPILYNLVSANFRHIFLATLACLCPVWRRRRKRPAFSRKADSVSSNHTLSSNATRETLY

Row | Molecule | FACS binding (%, 1 μg/ml) (NTSR1 on A549 cells) | FACS binding (%, 10 μg/ml) (NTSR1 on A549 cells) | EC50 (NTSR1 on A549 cells) | effect on h7C3 affinity (in words) [1] | binding affinity to cell surface NTSR1 compared with h7C3-1 (NTSR1 on A549 cells) | effect on h7C3-1 affinity for peptide (in words) [1, 2] | further results
1 | 7C3: anti-human NTSR1 antibody with VH SEQ ID NO: 1 and VL SEQ ID NO: 2, full-length IgG with human IgG1 constant domains (antibody, V domains shown, human IgG1 constant domains; VH SEQUENCE; VL SEQUENCE) VH: QVQLQQPGSVLVRPGASVKLSCKASGYTFTSSWIHWAKQRPGQGLEWIGQIRPNSGNTYYNEKFKVKATLTVDTSSSTAYVDLSSLTSEDSAVYYCARYYYGFDYWGQGTLVTVSS VL: DVLMTQTPLSLPVSLGDQASISCRSSQSIVHSNGNTYLEWYLQKPGQSPKLLIYKVSNRFSGVPDRFSGSGSGTDFTLKISRVEAEDLGVYYCFQGSHLPWTFGGGTKLEIKR | 16.8% | 83.2% | 11.3 ± 2.8 µg/mL |  |  |  | binding to A549 cells (NTSR1 on A549 cells; 10 μg/ml, flow cytometry): strong binding
2 | D104A: h7C3 variant, D104A in CDR H3 (antibody, V domains shown) VH: QVQLQQPGSVLVRPGASVKLSCKASGYTFTSSWIHWAKQRPGQGLEWIGQIRPNSGNTYYNEKFKVKATLTVDTSSSTAYVDLSSLTSEDSAVYYCARYYYGFAYWGQGTLVTVSS VL: DVLMTQTPLSLPVSLGDQASISCRSSQSIVHSNGNTYLEWYLQKPGQSPKLLIYKVSNRFSGVPDRFSGSGSGTDFTLKISRVEAEDLGVYYCFQGSHLPWTFGGGTKLEIKR |  |  |  | no effect |  |  | 
3 | Y105A: h7C3 variant, Y105A in CDR H3 (antibody, V domains shown) VH: QVQLQQPGSVLVRPGASVKLSCKASGYTFTSSWIHWAKQRPGQGLEWIGQIRPNSGNTYYNEKFKVKATLTVDTSSSTAYVDLSSLTSEDSAVYYCARYYYGFDAWGQGTLVTVSS VL: DVLMTQTPLSLPVSLGDQASISCRSSQSIVHSNGNTYLEWYLQKPGQSPKLLIYKVSNRFSGVPDRFSGSGSGTDFTLKISRVEAEDLGVYYCFQGSHLPWTFGGGTKLEIKR |  |  |  | no effect |  |  | 
4 | h7C3-1: 7C3 variant bearing Y100H mutation in CDR H3 (antibody, V domains shown) VH: QVQLQQPGSVLVRPGASVKLSCKASGYTFTSSWIHWAKQRPGQGLEWIGQIRPNSGNTYYNEKFKVKATLTVDTSSSTAYVDLSSLTSEDSAVYYCARYHYGFDYWGQGTLVTVSS VL: DVLMTQTPLSLPVSLGDQASISCRSSQSIVHSNGNTYLEWYLQKPGQSPKLLIYKVSNRFSGVPDRFSGSGSGTDFTLKISRVEAEDLGVYYCFQGSHLPWTFGGGTKLEIKR | 41% | 93.1% | 7.6 ± 1.7 µg/mL | higher affinity |  |  | 
5 | L99A: h7C3-1 variant, L99A in CDR L3 (antibody, V domains shown) VH: QVQLQQPGSVLVRPGASVKLSCKASGYTFTSSWIHWAKQRPGQGLEWIGQIRPNSGNTYYNEKFKVKATLTVDTSSSTAYVDLSSLTSEDSAVYYCARYHYGFDYWGQGTLVTVSS VL: DVLMTQTPLSLPVSLGDQASISCRSSQSIVHSNGNTYLEWYLQKPGQSPKLLIYKVSNRFSGVPDRFSGSGSGTDFTLKISRVEAEDLGVYYCFQGSHAPWTFGGGTKLEIKR |  |  |  |  |  |  | decrease of h7C3-1 affinity [1, 2]: 70%
6 | G96A: h7C3-1 variant, G96A in CDR L3 (antibody, V domains shown) VH: QVQLQQPGSVLVRPGASVKLSCKASGYTFTSSWIHWAKQRPGQGLEWIGQIRPNSGNTYYNEKFKVKATLTVDTSSSTAYVDLSSLTSEDSAVYYCARYHYGFDYWGQGTLVTVSS VL: DVLMTQTPLSLPVSLGDQASISCRSSQSIVHSNGNTYLEWYLQKPGQSPKLLIYKVSNRFSGVPDRFSGSGSGTDFTLKISRVEAEDLGVYYCFQASHLPWTFGGGTKLEIKR |  |  |  |  | significantly diminished | no effect | 
7 | h7C3-2: 7C3 variant harboring Y100H mutation in CDR H3 and S97A mutation in CDR L3 (antibody, V domains shown) VH: QVQLQQPGSVLVRPGASVKLSCKASGYTFTSSWIHWAKQRPGQGLEWIGQIRPNSGNTYYNEKFKVKATLTVDTSSSTAYVDLSSLTSEDSAVYYCARYHYGFDYWGQGTLVTVSS VL: DVLMTQTPLSLPVSLGDQASISCRSSQSIVHSNGNTYLEWYLQKPGQSPKLLIYKVSNRFSGVPDRFSGSGSGTDFTLKISRVEAEDLGVYYCFQGAHLPWTFGGGTKLEIKR | 86.0% | 99.5% | 1.5 ± 0.5 µg/mL |  | higher affinity | no effect | 
8 | H98A: h7C3-1 variant, H98A in CDR L3 (antibody, V domains shown) VH: QVQLQQPGSVLVRPGASVKLSCKASGYTFTSSWIHWAKQRPGQGLEWIGQIRPNSGNTYYNEKFKVKATLTVDTSSSTAYVDLSSLTSEDSAVYYCARYHYGFDYWGQGTLVTVSS VL: DVLMTQTPLSLPVSLGDQASISCRSSQSIVHSNGNTYLEWYLQKPGQSPKLLIYKVSNRFSGVPDRFSGSGSGTDFTLKISRVEAEDLGVYYCFQGSALPWTFGGGTKLEIKR |  |  |  |  | slightly affects | no effect | 
9 | P100A: h7C3-1 variant, P100A in CDR L3 (antibody, V domains shown) VH: QVQLQQPGSVLVRPGASVKLSCKASGYTFTSSWIHWAKQRPGQGLEWIGQIRPNSGNTYYNEKFKVKATLTVDTSSSTAYVDLSSLTSEDSAVYYCARYHYGFDYWGQGTLVTVSS VL: DVLMTQTPLSLPVSLGDQASISCRSSQSIVHSNGNTYLEWYLQKPGQSPKLLIYKVSNRFSGVPDRFSGSGSGTDFTLKISRVEAEDLGVYYCFQGSHLAWTFGGGTKLEIKR |  |  |  |  | significantly diminished | no effect | 
10 | N54A: h7C3-2 variant, N54A in CDR H2 (antibody, V domains shown) VH: QVQLQQPGSVLVRPGASVKLSCKASGYTFTSSWIHWAKQRPGQGLEWIGQIRPASGNTYYNEKFKVKATLTVDTSSSTAYVDLSSLTSEDSAVYYCARYHYGFDYWGQGTLVTVSS VL: DVLMTQTPLSLPVSLGDQASISCRSSQSIVHSNGNTYLEWYLQKPGQSPKLLIYKVSNRFSGVPDRFSGSGSGTDFTLKISRVEAEDLGVYYCFQGAHLPWTFGGGTKLEIKR |  |  |  |  |  |  | binding affinity to peptide compared with h7C3-2 (in words) ([1]; h7C3-2 variants): higher binding affinity
